Experiments:
[1] = target: HIV-1 IIIB viral envelope protein gp41 (HIV-1 IIIB) (UniProt P04578); assay: cell-based or functional assay
[2] = target: HIV-1 IIIB viral envelope protein gp41 (HIV-1 IIIB, UniProt P04578 512-856); assay: cell-based or functional assay

For “FB006M conjugated with human serum albumin (HSA) (from UniProt P02768 25-609)”, the IC50 (nM), 50% viral inhibition drug concentration, HIV-1 IIIB in fresh human PBMC cultures [1] was 3.94 nM and the fold increase of the antiviral IC50 against FB006 [1] was 2.8 fold.

With Ac-WEEWDREINNYTKLIHELIEESQNQQEKNEQELL-NH2 [FB006] the “IC50 (nM), 50% viral inhibition drug concentration, HIV-1 IIIB in fresh human PBMC cultures” value [2] was 1.41 nM.

For Ac-SLEQIWNNMTWEEWDREINNYTELIHELIEESQNQQEKNEQELL-NH2 [FB005], the “IC50 (nM), 50% viral inhibition drug concentration, HIV-1 IIIB in fresh human PBMC cultures” value [2] was 0.93 nM.

Reference: patent US20050089840A1 (FRONTIER BIOTECHNOLOGIES, published 2005)
